How the values were obtained:
[1] = biological target: T1, human CD228 (R&D Systems Custom02; Lot DCWR021505A) (human, UniProt P08582 20-709, limits assumed); experiment: ELISA on plate-coated human CD228, pH 5.6
T1 sequence (looked up): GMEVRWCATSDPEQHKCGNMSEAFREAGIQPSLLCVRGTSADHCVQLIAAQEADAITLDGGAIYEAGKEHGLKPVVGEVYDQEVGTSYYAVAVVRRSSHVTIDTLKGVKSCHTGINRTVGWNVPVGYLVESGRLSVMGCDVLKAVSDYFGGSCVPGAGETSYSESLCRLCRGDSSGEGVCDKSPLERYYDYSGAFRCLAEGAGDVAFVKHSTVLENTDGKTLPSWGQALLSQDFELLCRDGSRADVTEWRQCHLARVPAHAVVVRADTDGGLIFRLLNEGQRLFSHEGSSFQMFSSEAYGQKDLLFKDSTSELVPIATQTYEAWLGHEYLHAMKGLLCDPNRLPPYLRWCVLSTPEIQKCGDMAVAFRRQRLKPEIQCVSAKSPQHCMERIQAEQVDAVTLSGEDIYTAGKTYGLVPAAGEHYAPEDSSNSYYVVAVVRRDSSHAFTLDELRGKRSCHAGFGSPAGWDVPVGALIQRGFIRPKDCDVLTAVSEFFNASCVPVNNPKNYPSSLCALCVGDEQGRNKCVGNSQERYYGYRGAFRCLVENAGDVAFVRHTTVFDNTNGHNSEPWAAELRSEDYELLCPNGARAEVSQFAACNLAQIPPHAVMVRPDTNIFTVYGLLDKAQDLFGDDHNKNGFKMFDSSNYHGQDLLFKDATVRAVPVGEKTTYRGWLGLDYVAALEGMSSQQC
Method: (§1) The ability of various anti-CD228 ADCs to bind to CD228 was evaluated at pH values ranging from 4 to 7.5 using a standard ELISA protocol. Briefly, 100 ng of human CD228 (R&D Systems Custom02; Lot DCWR021505A) or BSA (Sigma; Catalog No. A7030-100G) were diluted in PBS and added to each well overnight at 4° C. Plates were then washed three times with PBS-T (EMD Millipore; Catalog No. 5246531EA). After washing, plates were blocked with 3% (w/v) BSA in PBS-T for 1 hour at room temperature. Excess blocking buffer was then removed and the primary antibody was added in 3-fold dilutions in diluent buffer (0.15M citrate-phosphate buffer pH 4.0-7.5) starting at an antibody concentration of 60 nM. After incubating for 1 hour at room temperature, the plates were washed 3 times and then incubated with secondary antibody (Goat anti-human IgG Fc-specific HRP-conjugated, Jackson ImmunoResearch code #109-035-098) in PBS-T with 1% BSA. After incubating for 30 minutes at room temperature, plates were washed 3 times. 100 μl TMB substrate (Life Technologies; Cat #002023) was then added to each well. After incubating 10 minutes at room temperature, 100 μl H2SO4 was added to each well to stop the reaction, plates were covered with clear plate seal and read on an Envision at […]. pH-dependent binding for hL49, cL235, CD228Ab1, CD228Ab2 and CD228Ab3, CD228Ab4 are shown in FIG. 34A-34F.

[2] = biological target: T1, human CD228 (R&D Systems Custom02; Lot …); experiment: ELISA on plate-coated human CD228, pH 5.9
Method: as §1

[3] = biological target: T1, human CD228 (R&D Systems Custom02; Lot …); experiment: ELISA on plate-coated human CD228, pH 6.3
Method: as §1

[4] = biological target: T1, human CD228 (R&D Systems Custom02; Lot …); experiment: ELISA on plate-coated human CD228, pH 7.1
Method: as §1

[5] = biological target: T1, human CD228 (R&D Systems Custom02; Lot …); experiment: ELISA on plate-coated human CD228, pH 7.4
Method: as §1

[6] = biological target: T1, human CD228 (R&D Systems Custom02; Lot …); experiment: ELISA on plate-coated human CD228, pH 7.5
Method: as §1

[7] = biological target: T1, human CD228 (R&D Systems Custom02; Lot …); experiment: ELISA on plate-coated human CD228, pH 6.66
Method: as §1

[8] = biological target: T2, human CD228 on the cell surface (RPMI-7951 cells stably expressing human CD228; A375 cells) (human, UniProt P08582 20-709); experiment: saturation binding by flow cytometry on RPMI-7951 cells stably expressing human CD228; apparent KD
T2 construct: whole, on cells; also called p97; melanotransferrin
T2 sequence (looked up): T1 sequence (looked up)
Method: (§2) The KD for each resulting antibody was then determined by a saturation binding assay. Briefly, 1×10⁵ RPMI-7951 cells stably expressing human CD228 were aliquoted per well of a 96-well v-bottom plates. Each CD228 antibody was added in concentrations ranging from 0.05 pM to 340 nM and incubated on ice for 60 minutes. Cells were pelleted and washed 3× with PBS/BSA followed by addition of 10 ug/ml of a PE labeled anti-human IgG goat secondary antibody and incubated on ice for an additional 60 minutes. Cells were pelleted and washed 3× with PBS/BSA and resuspended in 125 μL of PBS/BSA. Fluorescence was analyzed by flow cytometry, using percent of saturated fluorescent signal to determine percent bound and to subsequently calculate apparent KD. The binding curves for recombinant human anti-CD228 antibodies are shown in FIG. 13 and the KD for cL49ec (chimeric LA9 with an S239C mutation in the […] constant region), hL49 HALA G1, hL49 HALB G1, and hL49 HALC G1 are shown in Table 8. The antibody called “HALC,” “hL49,” or “hL49-HALC” which comprises heavy chain “HA” and the light chain “LC” was selected for use in all other experiments.

[9] = biological target: T2, human CD228 on the cell surface …; experiment: saturation binding by flow cytometry, RPMI-7951 cells stably expressing human CD228; PE anti-human IgG secondary; row 'ug/mL' of the drawn table headed 'kD'
Method: as §2

B1: hL49 HALC G1 (antibody, human IgG1, kappa, V domains shown)
VH: QVQLQESGPGLVKPSETLSLTCTVSGDSITSGYWNWIRQPPGKGLEYIGYISDSGITYYNPSLKSRVTISRDTSKNQYSLKLSSVTAADTAVYYCARRTLATYYAMDYWGQGTLVTVSS
VL: DFVMTQSPLSLPVTLGQPASISCRASQSLVHSDGNTYLHWYQQRPGQSPRLLIYRVSNRFSGVPDRFSGSGSGTDFTLKISRVEAEDVGVYYCSQSTHVPPTFGQGTKLEIKT
notes: Humanized L49, IgG1 kappa
EC50 [1]: 21.8 nM
EC50 [2]: 5.31 nM
EC50 [3]: 2.96 nM
EC50 [4]: 1.1 nM
EC50 [5]: 0.856 nM
EC50 [6]: 1.18 nM
EC50 [7]: 1.54 nM
Kd [8]: 4 nM
Kd [9]: 0.6 µg/mL

Source: US20240409658A1 (Seagen, published 2024)
